Test results published in the supplement of paper PMC10266784.

B1: library; numbered along this chain (parent)
chain: MAAAAAAAAEQQSSNGPVKKSMREKAVERRSVNKEHNSNFKAGYIPIDEDRLHKTGLRGRKGNLAICVIILLFILAVINLIITLVIWAVIRIGPNGCDSMEFHESGLLRFKQVSDMGVIHPLYKSTVGGRRNENLVITGNNQPIVFQQGTTKLSVENNKTSITSDIGMQFFDPRTQNILFSTDYETHEFHLPSGVKSLNVQKASTERITSNATSDLNIKVDGRAIVRGNEGVFIMGKTIEFHMGGNMELKAENSIILNGSVMVSTTRLPSSSSGDQLGSGDWVRYKLCMCADGTLFKVQVTSQNMGCQISDNPCGNTH

Variants of: B1
Assay: SGCB cell-surface expression functional score (HA stain, bin4 vs bin1, normalised to synonymous) (log10 ratio); higher = more cell-surface SGCB (functional)
In short: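 Human beta-sarcoglycan, tagged with HA and fused to YFP, was built into codon-saturation libraries and delivered by lentivirus at MOI <0.1 into HEK293 cells that stably express alpha-, gamma- and delta-sarcoglycan. After 72 hours, YFP-positive cells were sorted and grown for 5–7 days, then stained on ice with Alexa Fluor 647 anti-HA, fixed, sorted into four 5% intensity bins and amplicon-sequenced. Each variant's functional score is the log ratio of its frequency in the highest bin to that in the lowest bin, taken as the median across codons and transductions. Transductions were done in duplicate, and synonymous variants were scaled per section to mean 0, SD 0.5.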

SGCB cell-surface expression functional score (log10), by site and new letter:
I144: A -0.98, V 0.47, H -0.73, E -1.11, P -1.22, F -0.77, C -0.33, G -0.85, S -0.8, M -0.89, D -0.57, Q -0.96, N -0.97, W -1.4, T -0.64, K -1.07, R -1.06, L -0.46
P143: E -0.73, A -0.21, C 0.07, H -0.41, F -0.1, S -0.44, V 0.07, N -0.09, R -0.34, Q -0.7, M 0.69, T -0.41, D -0.9, I -0.11, K -0.28, Y -0.63, L -0.54, G -0.72
G128: I 0.01, H -0.22, L 0.03, Q -0.11, F 0.6, E 0.08, S 0.07, R -0.6, P -1.25, W 0.3, V -0.76, K -1.35, M 0.04, Y 0.6, A 0.14, C -0.21, N 0.37, T -0.56, D -0.05
T138: P -1, Q -0.47, E -0.61, G -0.34, W 0.68, Y -0.33, R -0.08, M 0.02, D -0.39, K -0.25, N 0.54, V 0.19, L 0.16, S 0.4, C -0.1, F 0.14, A -0.51, H 0.22, I 0.11
G129: L -1.15, W -1.42, H -0.43, V -0.74, Y -0.91, K -1.37, F -0.78, P 0.12, C -1.01, I -0.84, T -0.06, D -0.94, A -0.41, N -0.81, E -0.9, M -0.82, R -1.04, Q -1.09, S 0.47
E133: S 0.19, D 0.54, T 0.08, G -0.14, Y -0.25, W 0.5, L -0.3, A -0.35, F -0.38, V -0.31, R -0.14, M -0.21, P -1, K -0.35, N 0.04, Q -0.09, I -0.47, C 0.05, H 0.17
Q142: H -0.52, I -0.41, M 0.97, V -0.05, G -0.22, F 0.14, E -0.04, A -0.06, C -0.01, T -0.17, W 0.21, N -0.43, Y -0.3, P -1.08, L -0.54, K -0.31, S 0.05, D -0.54, R -0.5
L135: W -0.88, I -0.47, K -1.3, A -1.13, D -1.2, H -1.28, N -1.44, Y -0.88, R -0.77, F -0.08, G -1.2, S -1.11, Q -1.5, M -0.06, E -1.07, P -1, T -1.04, C -0.83, V -0.35
N134: H 0.34, Q -0.54, E -0.18, A 0.39, R -0.6, P -0.03, L -0.84, V -0.29, K 0.09, G -0.09, T -0.26, W -0.71, C -0.25, I -0.65, Y -0.82, D 0.11, M -0.26, S 0.08, F -0.37
N141: E -0.4, R 0.07, W -0.63, K -0.5, C 0.03, Y -0.56, I -0.7, S 0.17, H -0.24, F -0.33, D -0.21, M 0.71, Q -0.08, T -0.25, P -0.87, L -0.45, G -0.3, A -0.39, V -0.25
G139: T -0.23, Q -1.77, R -0.98, F -1.58, D -0.84, S 0.06, A -0.13, I -0.91, E -0.91, V -1.28, P -1.13, K -1.52, N 0.52, L -1.18, M -1.05, H -1.79, C -0.65, W -0.74, Y -1.89
R130: L 0.65, P 0.33, D -1.07, W -0.57, N -0.47, A 0.27, Q 0.47, H 0.08, M 0.56, I 0.29, V -0.41, E 0.14, T -0.51, C -0.28, S -0.4, G -0.2, F 0.13, K -0.01, Y 0.43
N132: Y 0.44, H 0.63, T -0.61, W -0.63, P -1.06, F -0.11, M -0.85, V -0.38, R -0.38, C 0.33, L -0.16, S -0.31, A 0.15, K -0.36, D -0.52, E 0.11, Q -0.01, I -0.22, G 0.13
I137: P -1.44, C -1.42, E -0.97, G -1.08, F -0.01, N -1.72, W -0.8, K -1.21, Q -1.71, S -1.35, V -0.52, Y -1.36, T -0.7, D -1.25, M 0.54, R -1.41, A -1.07, L -0.12, H -1.24
R131: V 0.31, W 0.6, H -0.12, I 0.65, P -0.13, K 0.23, E 0.66, D 0.14, C 0.15, G 0.16, F -0.03, N 0.24, Y 0.31, T -0.17, M 0.59, Q -0.6, S -0.09, A 0.14, L 0.13
V136: Q 0.22, Y 0.15, P -1.03, K 0.36, W 0.57, C -0.25, A 0.05, H -0.22, G -0.58, F 0.49, E 0.05, N -0.01, S -0.3, T -0.51, I 0.32, R -0.57, D -0.33, L 0.17, M -0.57
N140: Q -0.33, I -0.12, E 0.35, R 0.05, A -0.08, S -0.38, L -0.39, C -0.04, K -0.48, F -0.56, M -0.05, D -0.24, H -0.65, P -0.49, V 0.16, G 0.06, Y -0.05, T -0.19, W -0.93
V127: T -0.96, I -0.32, R -0.96, N -0.94, S -1.34, W -1.36, P -0.5, L -0.04, Y -1.55, M -0.2, H -1.08, Q -1.97, K -1.2
